Data: patent publication US10398755B2, “Clusterin pharmaceuticals and treatment methods using the same” (UNIVERSITY OF SOUTHERN CALIFORNIA, priority 2009, dated 2019)

Columns and labels:
MMP-2 = molecular target: T1, MMP-2 (Mus musculus, UniProt P33434); assay: MMP inhibition assay (FRET peptide substrate), APMA-activated pro-MMP-2; type: biochemical
T1 construct: purchased R&D Systems
Experimental: RFU, relative fluorescence unit, was obtained by considering the read out in PBS as 100%. Each reaction was performed in triplicate. Standard errors were depicted as a bar in each graph. Differences between values of PBS and CLU or SB-3CT reactions were statistically significant by Student t-test: *P=0.0004, **P=0.0001, +P=0.0003, and ++P=0.01. Gelatin zymography was performed with the samples pooled from each reaction set. Pro-MMPs, processed MMPs (MMP-9 or MMP-2), and C-terminal truncated, processed MMP-9 (MMP-9-ΔC) were indicated by arrows. (B) Dose-dependent inhibition of MMP-9 by CLU or SB-3CT was performed in the same condition. MMPs were mixed with CLD in TSCB buffer, 50 mM Tris-HCI, pH, 7.5, 150 mM NaCl, 5 mM CaCl2, 0.002% Brij35 (or otherwise indicated concentration) 30 min prior to substrate addition, and incubated for 3 h at RT in the presence or absence of 0.02 mM p-aminophenylmercuric acetate (APMA). MMP activity was measured using a 5-FAM/QXL520 fluorescence resonance energy transfer (FRET) peptide as a substrate (EXlEm=490 nm/520 nm) (AnaSpec, Fremont, Calif.), according to the manufacturer's protocol. Relative fluorescence unit (RFU) was obtained by subtracting the values of APMA- or enzyme-omitted reactions from those of test samples, and then considering the fluorescence unit of a PBS (vehicle) sample as 100%. Enzyme reactions were performed in black 96-well plate, containing combinations of 10 ng, 5 ng, 5 ng, 10 ng, 2.5 μg, 2.5 μg of MMP-2, MMP-7, catalytic domain of MMP-9, MMP-9, CCLU, and/or BSA, respectively, in 50 μl reaction volume. As MMP substrates (0.4 μM), 520 MMP FRET substrate […] (SEQ ID NO: 9), was used for MMP-2 and MMP-9, and 520 MMP FRET substrate XIV, […] […] Fluorescence was monitored using a Victor^3TM V multilabel counter (PerkinElmer). […] To determine whether MMP-9/CLU interaction affects the cleavage process of the propeptide of MMP-9 and/or interferes with enzymatic activity of the processed active enzyme, we performed an in vitro MMP-9 inhibition assay, by adopting FRET assay using a fluorescence-quenched peptide substrate (FIG. 3A). […] We incubated pro-MMP-9 with PBS, CLU, SB-3CT, or BSA, and a fluorescence peptide substrate in the presence or absence of APMA. […] We monitored the change in fluorescence value during the incubation of the reactions up to 3 h, which reflects the enzymatic activity of APMA-activated MMPs. […] At 3 h post incubation, the activity difference was read and reaction products were resolved by gelatin zymography. […] When the processed enzyme products were resolved on the gel, three bands were detected in the APMA-treated samples, pro-MMP-9, propeptide-cleaved MMP-9 (MMP-9), and MMP-9 with both propeptide and C-terminal region cleaved (MMP-9-ΔC), whereas only pro-MMP-9 was detected in APMA-omitted samples. […]

[1] = tested on: MMP-9 secreted from HCLE cells; assay: TNF-alpha induction of MMP-9 secretion from stratified HCLE cells (gelatin zymography); type: cell-based, human; details: clusterin 50 ug/ml with TNF-alpha 10 ng/ml, 24 hours
Experimental: (§1) HCLE cells were grown to be confluent in KSFM media and then replenished with DMAM/F12 media to stratify cells for 7 days. To these cells in serum-free DMEM/F12 media, clusterin (50 ug/ml), bovine serum albumin (BSA, 50 ug/ml), and TNF-alpha (10 ng/ml), individually or in combination, were treated for 24 hours. The same volume of supernatants of the cell cultures treated were collected to resolve on SDS/PAGE gel containing gelatin in order to perform gelatin zymography to visualize the presence of MMP-9 secreted from the cells.
as §1, with “cells. […] Therefore, Clusterin inhibits the induction of MMP-9 from human corneal limbal epithelial (HCLE) cells. (See FIG. 10)” for “cells.”

T1 sequence (P33434 110-662): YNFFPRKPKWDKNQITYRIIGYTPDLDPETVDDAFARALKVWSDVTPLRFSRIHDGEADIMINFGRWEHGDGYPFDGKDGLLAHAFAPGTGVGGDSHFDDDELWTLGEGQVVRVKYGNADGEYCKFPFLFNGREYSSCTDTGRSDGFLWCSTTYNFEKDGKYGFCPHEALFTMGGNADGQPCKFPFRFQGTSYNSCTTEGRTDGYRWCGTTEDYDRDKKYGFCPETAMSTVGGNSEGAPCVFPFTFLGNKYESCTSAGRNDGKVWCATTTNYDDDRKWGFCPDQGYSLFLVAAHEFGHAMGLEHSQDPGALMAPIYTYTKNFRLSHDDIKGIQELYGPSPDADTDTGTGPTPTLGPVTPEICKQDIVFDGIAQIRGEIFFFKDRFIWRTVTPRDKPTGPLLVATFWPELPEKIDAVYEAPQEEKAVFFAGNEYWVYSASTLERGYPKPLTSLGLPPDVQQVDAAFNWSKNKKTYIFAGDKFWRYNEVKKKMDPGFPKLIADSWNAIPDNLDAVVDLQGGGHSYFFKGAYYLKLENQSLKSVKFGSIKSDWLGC

B1: CLU: secreted disulfide-linked heterodimeric glycoprotein (70-80 KD); assays used recombinant mouse CLU with C-terminal (His)6 (protein, UniProt Q06890 22-448, looked up)
Clusterin: EQEVSDNELQELSTQGSRYINKEIQNAVQGVKHIKTLIEKTNAERKSLLNSLEEAKKKKEDALEDTRDSEMKLKAFPEVCNETMMALWEECKPCLKHTCMKFYARVCRSGSGLVGQQLEEFLNQSSPFYFWMNGDRIDSLLESDRQQSQVLDAMQDSFARASGIIDTLFQDRFFARELHDPHYFSPIGFPHKRPHFLYPKSRLVRSLMSPSHYGPPSFHNMFQPFFEMIHQAQQAMDVQLHSPAFQFPDVDFLREGEDDRTVCKEIRRNSTGCLKMKGQCEKCQEILSVDCSTNNPAQANLRQELNDSLQVAERLTEQYKELLQSFQSKMLNTSSLLEQLNDQFNWVSQLANLTQGEDKYYLRVSTVTTHSSDSEVPSRVTEVVVKLFDSDPITVVLPEEVSKDNPKFMDTVAEKALQEYRRKSRAE
modifications: C-terminal His6 tag
effect on APMA-induced processing of MMP-2 (gel analysis) (MMP-2; APMA-treated reactions): processing of MMP-2 was not altered
inhibition of MMP-2 activity (MMP-2; CLU 50 μg/ml (0.63 μM), APMA, RT 3 h): 72%
potency on MMP-2 compared with SB-3CT (MMP-2; CLU 50 μg/ml or 0.63 μM versus SB-3CT 1 μM): more potent inhibitor of both MMP-9 and MMP-2 than SB-3CT
MMP-2 inhibition at high detergent concentration (MMP-2; buffer with 0.04% Brij 35 or NP-40): inhibited by CLU in both buffers to the extent similar to that in the lower detergent concentration
TNF-induced MMP-9 secretion [1]: inhibited TNF-induced MMP-9 secretion
